For series [1], the system named is HeLa Kyoto. The series can be described thus: solubility in G1/S (NP-40 vs SDS abundance) (log2 ratio); higher = more soluble. The conditions noted are these: cell cycle stage: G1/S.
The test system of series [2] is HeLa Kyoto. The series can be described thus: melting temperature (median over replicates), in situ; higher = more thermally stable.
In series [3] the test system is HeLa Kyoto. As to the kind of experiment: solubility change mitosis vs G1/S (difference of NP-40 vs SDS log2 ratios) (log2 ratio difference); higher = more soluble in mitosis.
The subject of series [4] is HeLa Kyoto. As to the kind of experiment: thermal stability score vs G1/S (z-score of summed log2 fold changes over temperatures); higher = more thermally stable than in G1/S.
[5] abbreviates: cell cycle stage: early G1 (4.5 h after nocodazole release).
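Wherever melting temperature (median over replicates), in situ is given: HeLa Kyoto cells synchronized by double thymidine or nocodazole block, proteins quantified by TMT10plex mass spectrometry, three independent biological replicates.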
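Wherever solubility change mitosis vs G1/S (difference of NP-40 vs SDS log2 ratios) is given: synchronized HeLa Kyoto cells (double thymidine block for G1/S, nocodazole release for mitosis), protein amounts in NP-40 versus SDS lysates quantified by mass spectrometry, three biological replicates.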
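Wherever solubility in G1/S (NP-40 vs SDS abundance) is given: HeLa Kyoto cells arrested at G1/S by double thymidine block, proteins quantified by TMT10plex mass spectrometry in mild NP-40 versus SDS extracts, three biological replicates.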
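Wherever thermal stability score vs G1/S (z-score of summed log2 fold changes over temperatures) is given: synchronized HeLa Kyoto cells, proteins quantified by TMT10plex mass spectrometry, three biological replicates, mitosis taken 0.5 h after nocodazole release, G1/S directly after double thymidine block.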

In the case of “MKKKTVCTLNMGDKKYEDMEGEENGDNTISTGLLYSEADRCPICLNCLLEKEVGFPESCNHVFCMTCILKWAETLASCPIDRKPFQAVFKFSALEGYVKVQVKKQLRETKDKKNENSFEKQVSCHENSKSCIRRKAIVREDLLSAKVCDLKWIHRNSLYSETGGKKNAAIKINKPQRSNWSTNQCFRNFFSNMFSSVSHSGESSFTYRAYCTEFIEASEISALIRQKRHELELSWFPDTLPGIGRIGFIPWNVETEVLPLISSVLPRTIFPTSTISFEHFGTSCKGYALAHTQEGEEKKQTSGTSNTRGSRRKPAMTTPTRRSTRNTRAETASQSQRSPISDNSGCDAPGNSNPSLSVPSSAESEKQTRQAPKRKSVRRGRKPPLLKKKLRSSVAAPEKSSSNDSVDEETAESDTSPVLEKEHQPDVDSSNICTVQTHVENQSANCLKSCNEQIEESEKHTANYDTEERVGSSSSESCAQDLPVLVGEEGEVKKLENTGIEANVLCLESEISENILEKGGDPLEKQDQISGLSQSEVKTDVCTVHLPNDFPTCLTSESKVYQPVSCPLSDLSENVESVVNEEKITESSLVEITEHKDFTLKTEELIESPKLESSEGEIIQTVDRQSVKSPEVQLLGHVETEDVEIIATCDTFGNEDFNNIQDSENNLLKNNLLNTKLEKSLEEKNESLTEHPRSTELPKTHIEQIQKHFSEDNNEMIPMECDSFCSDQNESEVEPSVNADLKQMNENSVTHCSENNMPSSDLADEKVETVSQPSESPKDTIDKTKKPRTRRSRFHSPSTTWSPNKDTPQEKKRPQSPSPRRETGKESRKSQSPSPKNESARGRKKSRSQSPKKDIARERRQSQSRSPKRDTTRESRRSESLSPRRETSRENKRSQPRVKDSSPGEKSRSQSRERESDRDGQRRERERRTRKWSRSRSHSRSPSRCRTKSKSSSFGRIDRDSYSPRWKGRWANDGWRCPRGNDRYRKNDPEKQNENTRKEKNDIHLDADDPNSADKHRNDCPNWITEKINSGPDPRTRNPEKLKESHWEENRNENSGNSWNKNFGSGWVSNRGRGRGNRGRGTYRSSFAYKDQNENRWQNRKPLSGNSNSSGSESFKFVEQQSYKRKSEQEFSFDTPADRSGWTSASSWAVRKTLPADVQNYYSRRGRNSSGPQSGWMKQEEETSGQDSSLKDQTNQQVDGSQLPINMMQPQMNVMQQQMNAQHQPMNIFPYPVGVHAPLMNIQRNPFNIHPQLPLHLHTGVPLMQVATPTSVSQGLPPPPPPPPPSQQVNYIASQPDGKQLQGIPSSSHVSNNMSTPVLPAPTAAPGNTGMVQGPSSGNTSSSSHSKASNAAVKLAESKVSVAVEASADSSKTDKKLQIQEKAAQEVKLAIKPFYQNKDITKEEYKEIVRKAVDKVCHSKSGEVNSTKVANLVKAYVDKYKYSRKGSQKKTLEEPVSTEKNIG [SCAF11]”, the “solubility in G1/S (log2)” value in the series on HeLa Kyoto [1] is -0.87. Moreover, the melting temperature in the series on HeLa Kyoto [2] (cell cycle stage: G1/S) was found to be 52.9 °C; in the series on HeLa Kyoto [2] (cell cycle stage: mitosis), 53.5 °C. Moreover, in the series on HeLa Kyoto [3], the “solubility change mitosis (log2)” value was found to be 0.664. The thermal stability score with HeLa Kyoto [4] (setting [5]) is -1.41; in the series on HeLa Kyoto [4] (cell cycle stage: mitosis) it was 2.84.

For the sequence “MKKVRLKELESRLQQVDGFEKPKLLLEQYPTRPHIAACMLYTIHNTYDDIENKVVADLGCGCGVLSIGTAMLGAGLCVGFDIDEDALEIFNRNAEEFELTNIDMVQCDVCLLSNRMSKSFDTVIMNPPFGTKNNKGTDMAFLKTALEMARTAVYSLHKSSTREHVQKKAAEWKIKIDIIAELRYDLPASYKFHKKKSVDIEVDLIRFSF [METTL5]”, in the series on HeLa Kyoto [1], the “solubility in G1/S (log2)” value is -0.0292. The values for the melting temperature in the series with HeLa Kyoto [2] (cell cycle stage: G1/S) and in the series with HeLa Kyoto [2] (cell cycle stage: mitosis) were 58.9 °C and 63.4 °C, respectively. In addition, the “solubility change mitosis (log2)” value in the series with HeLa Kyoto [3] was -0.277. The values for the thermal stability score in the series with HeLa Kyoto [4] (setting [5]) and in the series on HeLa Kyoto [4] (cell cycle stage: mitosis) were -0.685 and -0.982, respectively.

With “MKLGRAVLGLLLLAPSVVQAVEPISLGLALAGVLTGYIYPRLYCLFAECCGQKRSLSREALQKDLDDNLFGQHLAKKIILNAVFGFINNPKPKKPLTLSLHGWTGTGKNFVSKIIAENIYEGGLNSDYVHLFVATLHFPHASNITLYKDQLQLWIRGNVSACARSIFIFDEMDKMHAGLIDAIKPFLDYYDLVDGVSYQKAMFIFLSNAGAERITDVALDFWRSGKQREDIKLKDIEHALSVSVFNNKNSGFWHSSLIDRNLIDYFVPFLPLEYKHLKMCIRVEMQSRGYEIDEDIVSRVAEEMTFFPKEERVFSDKGCKTVFTKLDYYYDD [TOR1A]”, the “solubility in G1/S (log2)” value in the series on HeLa Kyoto [1] came to 0.000474. In addition, the melting temperature with HeLa Kyoto [2] (cell cycle stage: G1/S) was found to be 53.7 °C; with HeLa Kyoto [2] (cell cycle stage: mitosis), 53.5 °C. Further, the “solubility change mitosis (log2)” value with HeLa Kyoto [3] was -0.0946. For the same sequence, the results for the thermal stability score in the series on HeLa Kyoto [4] (setting [5]) and in the series with HeLa Kyoto [4] (cell cycle stage: mitosis) were 3.37 and 4.06, respectively.

Regarding “MKLKLNVLTIILLPVHLLITIYSALIFIPWYFLTNAKKKNAMAKRIKAKPTSDKPGSPYRSVTHFDSLAVIDIPGADTLDKLFDHAVSKFGKKDSLGTREILSEENEMQPNGKVFKKLILGNYKWMNYLEVNRRVNNFGSGLTALGLKPKNTIAIFCETRAEWMIAAQTCFKYNFPLVTLYATLGKEAVVHGLNESEASYLITSVELLESKLKTALLDISCVKHIIYVDNKAINKAEYPEGFEIHSMQSVEELGSNPENLGIPPSRPTPSDMAIVMYTSGSTGRPKGVMMHHSNLIAGMTGQCERIPGLGPKDTYIGYLPLAHVLELTAEISCFTYGCRIGYSSPLTLSDQSSKIKKGSKGDCTVLKPTLMAAVPEIMDRIYKNVMSKVQEMNYIQKTLFKIGYDYKLEQIKKGYDAPLCNLLLFKKVKALLGGNVRMMLSGGAPLSPQTHRFMNVCFCCPIGQGYGLTESCGAGTVTEVTDYTTGRVGAPLICCEIKLKDWQEGGYTINDKPNPRGEIVIGGQNISMGYFKNEEKTAEDYSVDENGQRWFCTGDIGEFHPDGCLQIIDRKKDLVKLQAGEYVSLGKVEAALKNCPLIDNICAFAKSDQSYVISFVVPNQKRLTLLAQQKGVEGTWVDICNNPAMEAEILKEIREAANAMKLERFEIPIKVRLSPEPWTPETGLVTDAFKLKRKELRNHYLKDIERMYGGK [ACSL4]”, in the series with HeLa Kyoto [1], the “solubility in G1/S (log2)” value was -0.0428. For the same sequence, the values for the melting temperature in the series with HeLa Kyoto [2] (cell cycle stage: G1/S) and in the series with HeLa Kyoto [2] (cell cycle stage: mitosis) were 48.8 °C and 48.7 °C, respectively. In addition, the “solubility change mitosis (log2)” value with HeLa Kyoto [3] was -0.157. Further, the thermal stability score came out at 1.35 with HeLa Kyoto [4] (setting [5]) and 2.2 in the series on HeLa Kyoto [4] (cell cycle stage: mitosis).

As to “MKLLLLHPAFQSCLLLTLLGLWRTTPEAHASSLGAPAISAASFLQDLIHRYGEGDSLTLQQLKALLNHLDVGVGRGNVTQHVQGHRNLSTCFSSGDLFTAHNFSEQSRIGSSELQEFCPTILQQLDSRACTSENQENEENEQTEEGRPSAVEVWGYGLLCVTVISLCSLLGASVVPFMKKTFYKRLLLYFIALAIGTLYSNALFQLIPEAFGFNPLEDYYVSKSAVVFGGFYLFFFTEKILKILLKQKNEHHHGHSHYASESLPSKKDQEEGVMEKLQNGDLDHMIPQHCSSELDGKAPMVDEKVIVGSLSVQDLQASQSACYWLKGVRYSDIGTLAWMITLSDGLHNFIDGLAIGASFTVSVFQGISTSVAILCEEFPHELGDFVILLNAGMSIQQALFFNFLSACCCYLGLAFGILAGSHFSANWIFALAGGMFLYISLADMFPEMNEVCQEDERKGSILIPFIIQNLGLLTGFTIMVVLTMYSGQIQIG [SLC39A14]”, the “solubility in G1/S (log2)” value with HeLa Kyoto [1] is -0.0657. Besides, the melting temperature in the series with HeLa Kyoto [2] (cell cycle stage: G1/S) came out at 55.3 °C; in the series on HeLa Kyoto [2] (cell cycle stage: mitosis), 59 °C. For the same sequence, the “solubility change mitosis (log2)” value with HeLa Kyoto [3] is -0.241. The thermal stability score with HeLa Kyoto [4] (setting [5]) turned out to be 1.32; in the series on HeLa Kyoto [4] (cell cycle stage: mitosis) it was 2.81.

For the origin of these results see the supplement of paper PMC5998384.
